The values below come from the nanobody polyreactivity screen of Harvey et al. (2022).

The series can be described thus: yeast display, Sf9 membrane polyspecificity reagent, FACS + sequencing; frameworks hold sequencing errors. The essentials:
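Genes from sorted yeast were amplified by colony PCR, read by MiSeq 2 × 250 sequencing and filtered on CDR length. These cells carried a synthetic nanobody library in Saccharomyces cerevisiae BJ5465 and were sorted by FACS into low and high (top ~1%) gates on anti-HA and streptavidin fluorescence. Polyreactivity is labelled according to the gate of origin.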
Turning to “QVQLVESGGGLVQAGGSLRLSCAASGRIFHVYVMGWYRPAPGKERELVAAITWRGGRTYYADSVKGRFTISRDNAKNTVYLQMNSLKPEDTAVYYCKAVAYWYDYQYDYWGQGTQVTVSS”, the “polyreactivity (PSR sort gate)” value is given as “high polyreactivity”. For “QVQLVESGGGLVQAGGSLRLSCAASGRIFHWYAMGWYRQAPGKERELVATANTSYADSVKGRFTISRDNAKNTVYLQMNSLKPEDTAVYYCATVGPRGRSLGDYWGQGTQVTVSS” the value was “low polyreactivity”; for “QVQLVESGGGLVQAGGSLRLSCAASGRIFHYNAMGWYRQAPGKERELVARITWTGGSTYYADSVKGRFTISRDNAKNTVYLQMNSLKPEDNAVYYCAAKWSYTKGRYYYWGQGTQVTVSS”, “high polyreactivity”. The value for “QVQLVESGGGLVQAGGSLRLSCAASGRIFIGNAMGWYRQAPGKERELVAAISKRGGSTYYADSVKGRFTISRDNAKNTVYLQMNSLKPVDTAVYYCAVDGYVGVADYEYDNWGQGTQVTVSS” was “low polyreactivity”; that for “QVQLVESGGGLVQAGGSLRLSCAASGRIFIGYAMGWYRQAPGKERELVAAITSGGRTYYADSVKGRFTISRDNAKNTVYLQMNSLKPEDTAVYYCYRAAFRYRYDYWGQGTQVTVSS” was “high polyreactivity”; that for “QVQLVESGGGLVQAGGSLRLSCAASGRIFIIYAMGWYRQAPGKERELVAAINRGATTNYADSVKGRFTISRDNAKNTVYLQMNSLKPEDTAVYYCAARGVAKLRRVGYWGQGTQVTVSS” was “high polyreactivity”. The value for “QVQLVESGGGLVQAGGSLRLSCAASGRIFIKYAMGWYRQAPGKERELVAAISQSGGSTYYADSVKGRFTISRDNAKNTVYLQMNSLKPEDTAVYYCAVRLYYSIRYYYWGQGTQVTVSS” was “high polyreactivity”; that for “QVQLVESGGGLVQAGGSLRLSCAASGRIFIPNTMGWYIQAPGKERELVAAITWSGSSTYYADSVKGRFTISRDNAKNTVYLQMNSLKPEDTAVYYCAAYPSCYVVVSKGDYWGQGTQVTVSS” was “high polyreactivity”.

Turning to “QVQLVESGGGLVQAGGSLRLSCAASGRIFIPYVMGWYRQAPGKERELVAVITESGGSTYYADSVKGRFTISRDNAKNTVYLQMNSLKPEDTAVYYCATRYGRGARTYHYYYWGQGTQVTVSS”, the “polyreactivity (PSR sort gate)” value is “high polyreactivity”. The value for “QVQLVESGGGLVQAGGSLRLSCAASGRIFIQNTMGWYRQAPGKERELVAAITRSGGRTYYADSVKGRFTISRDNAKNTVYLQMNSLKPEDTAVYYCAAVARTVPSYSYNYWGQGTQVTVSS” was “high polyreactivity”; that for “QVQLVESGGGLVQAGGSLRLSCAASGRIFIRNAMGWYRPAPGKERELVAAITQSGGSTYYADSVKGRFTISRDNAKNTVYLQMNSLKPEDTAVYYCAADGDNPYLHEEDYWGQGTQVTVSS” was “high polyreactivity”; that for “QVQLVESGGGLVQAGGSLRLSCAASGRIFIRYAMGWYRQAPGKERELVAAISRSGGSTYYADSVKGRITISRDNAKNTVYLQMNSLKPEDTAVYYCAAVSSSTWLEYYYWGQGTQVTVSS” was “high polyreactivity”.

With “QVQLVESGGGLVQAGGSLRLSCAASGRIFIRYAMGWYRQAPGKERELVAVITTGGSTNADSVKGRFTISRDNAKNTVYLQMNSVKPEDTAVYYCNAKVRVYTRGYFRYWYDYWGQGTQVTVSS”, the “polyreactivity (PSR sort gate)” value is on record as “high polyreactivity”.

Turning to “QVQLVESGGGLVQAGGSLRLSCAASGRIFITNAMGWYRQAPGKERELVAAIRRRGGNTYYADSVKGRFTISRDNANNTVYLQINSLKPEDTAVYYCAVYPRPYKYNYWGQGTQVTVSS”, the “polyreactivity (PSR sort gate)” value was “high polyreactivity”. For “QVQLVESGGGLVQAGGSLRLSCAASGRIFITNTMGWYRQAPGKERELVAAISRTGGSTYYADSVKGRFTISRDNAKNTVYLQMNSLKPEDTAVYYCNADWYGQLWWGVDYWGQGTQVTVSS” the value was “high polyreactivity”; for “QVQLVESGGGLVQAGGSLRLSCAASGRIFIVYVMVWYRQAPGKESELVAAITGRGGSTYYADSVKGRFTISHDNAKNTVYLQMNSLKPEDTAVYYCDDYDGGGYDSWGQGNQVTVSS”, “low polyreactivity”; for “QVQLVESGGGLVQAGGSLRLSCAASGRIFIWYGMGWYRQAPGKERELVADISSTGSTNYADSVKGRFTISRDNAKNTVYLQMNSLKPEDTAVYYCAADPETPYYTTYDYDYWGQGTQVTVSS”, “low polyreactivity”.

With “QVQLVESGGGLVQAGGSLRLSCAASGRIFIYNAMGWSRQAPGIERELVARIRDRGDSTNYADSVKGRFTISRDNAKNTVYLQMNSLKPEDTAVYYCAAQPWLRYYYWGQGTQVTVSS”, the “polyreactivity (PSR sort gate)” value was “low polyreactivity”.

Consider “QVQLVESGGGLVQAGGSLRLSCAASGRIFIYYAMGRYRQAPGKERELVAGIDYSGGSTYYADSVKGRFTISRDNAKNTVYLQMNSLKPEDTAVYFCAAGKYRHYYGRSFYRFDYWGKGTQVTVSS”, for which the “polyreactivity (PSR sort gate)” value is given as “high polyreactivity”. The value for “QVQLVESGGGLVQAGGSLRLSCAASGRIFIYYTMGWYRQAPGKERELVAAINSGGSTKYADSVKGRFTISRDNAKNTVYLQMNSLKPEDTAVYYCARRGGFSYYYWGQGTQVTVSS” was “high polyreactivity”.

“QVQLVESGGGLVQAGGSLRLSCAASGRIFKGYAMGWYRQAPGKERELVAAITWRGGTTYYADSVKGRFTISRDNAKNTVYLQMNSLKPEDTAVYYCATTRYPRSYDYYYWGQGTQVTVSS”: the “polyreactivity (PSR sort gate)” value was “high polyreactivity”.

As for “QVQLVESGGGLVQAGGSLRLSCAASGRIFKLYAMGWYRQAPGKERELVAAISKSGGNTYADSVKGRFTISRDNAKNPVYLQMNSLKPEDTAVYYCAATVQSTSDPFDYLGQGTQVTVSS”, the “polyreactivity (PSR sort gate)” value was “low polyreactivity”. Consider “QVQLVESGGGLVQAGGSLRLSCAASGRIFKLYAMGWYRQAPGKERELVAAISTSAGSTNYADSVKGRFTISRDNSKNTVYLQMNSLKPEDTAVYYCAVAGVSTYYTYYYWGQGTQVTVSS”, for which the “polyreactivity (PSR sort gate)” value was “low polyreactivity”. For “QVQLVESGGGLVQAGGSLRLSCAASGRIFKLYARGWYRQAPGKERELVAAITSGGRTNYADSVKGRFTISRDNAKNTVYLQMNSLKPEDTAVYYCAARYYIVSLGSGYWGQGTQVTVSS” the value was “high polyreactivity”; for “QVQLVESGGGLVQAGGSLRLSCAASGRIFKNNAMGWYRQAPGKERELVAAITWRSGRTYYADSVKGRFTISRDNAKNTVYLQMNSLKAEDTAVYYCAKQVFGYGIVNNGDYWGQGTQVTVSS”, “high polyreactivity”. With “QVQLVESGGGLVQAGGSLRLSCAASGRIFKPYVMGWYRQAPGKERELVASITWNGGRTYYADSVKGRFTISRDNAKNTVYLQMNSLKPEDTAVYYCAADYWTTADPRNIIKYDYWGQGTQVTVSS”, the “polyreactivity (PSR sort gate)” value is “high polyreactivity”.

Regarding “QVQLVESGGGLVQAGGSLRLSCAASGRIFKRNAMGWYRQAPGNERELVAAINWSGGSTYYADSVKGRFTISRDTAKNTVYLQMNSLKPEDTAVYYCAALRVQGDYDYWGQGTQVTVSS”, the “polyreactivity (PSR sort gate)” value is reported as “high polyreactivity”. The value for “QVQLVESGGGLVQAGGSLRLSCAASGRIFKRNTMGWYRQAPGKERELVAAITRSGGSTHYADSVKGRFTISRDNAKNTVYLQMNSLKPEDTAVYYCAVRAAAIDRLAQFDYWGQGTQVTVSS” was “low polyreactivity”.

On to “QVQLVESGGGLVQAGGSLRLSCAASGRIFKRYAKGWYRQAPGKERELVAAISGSGGSTSYADSVKGRFTLSRDNAKNTVYLQMNSLKPEDTAVYYCNTTPRFIRSIGQGNYWVQGTQVTVSS”, for which the “polyreactivity (PSR sort gate)” value is “high polyreactivity”.

With “QVQLVESGGGLVQAGGSLRLSCAASGRIFKRYAMGWSRQAPGKDRELVATITTSGDSTYYADSVKGRFTISRDNAKNTVYLQMNSLKPEDTAVYDCAARSYRGRRYDYWGQGTQVTVSS”, the “polyreactivity (PSR sort gate)” value was “high polyreactivity”. The value for “QVQLVESGGGLVQAGGSLRLSCAASGRIFKSNAMGWYRQAPGKEWELVASISRSGSTNYADSVKGRFTISRDNAKNTVYLQMNSLKPEDTAVYYCAKDPDAKGGGYDYWGQGTQVTVSS” was “low polyreactivity”. For “QVQLVESGGGLVQAGGSLRLSCAASGRIFKSYAMGWYRQAPGKERELVAAIRSGGSTYYADSVKGRFTISRDNAKYTVYLQMNSLKPEDTAVYYCNRVTRTWKVTYHYWGQGTQVTVSS” the value was “high polyreactivity”; for “QVQLVESGGGLVQAGGSLRLSCAASGRIFKSYAMGWYRQAPGKERELVAAISRGGRTNYADSVKGRFTISRDNAKNTVYLQMNSLKPEDTAFYYCAARFVVQGHSSPYDYWGQGTQVTVSS”, “high polyreactivity”. For “QVQLVESGGGLVQAGGSLRLSCAASGRIFKSYAMGWYRQAPGKERELVATISISGGSTYYADSVKGRFTISRDNEKNTVYLQMNSLKPEDNAVYYCNVDFPITEYYYWGNGTQVTVSS” the value was “low polyreactivity”; for “QVQLVESGGGLVQAGGSLRLSCAASGRIFKSYAMGWYRQAPGKEWELVAAISRGGRTNYADSVKGRFTISRDNAKNTVYLHMHSLKPEDTAVYYCAAYHRDRNSGFDYWGQGTQGTVSS”, “high polyreactivity”; for “QVQLVESGGGLVQAGGSLRLSCAASGRIFKTYAMGWYRQAPGKERELVAAITASGGRTYDADSVKGRFTISRDNAKNTVYLQMNSLTPEDTAVYYSAAPLLRDLRSPYSYNYWGQGTQVTVSS”, “low polyreactivity”. For the sequence “QVQLVESGGGLVQAGGSLRLSCAASGRIFKTYAMGWYRQAPGKEREVVAAITAAGGRTYYADSVKGRFTISRDNAKNTVYLQMNSLKPEDTAVYYCAADSGNDYDYWGQGTQVTVSS”, the “polyreactivity (PSR sort gate)” value is “low polyreactivity”.

As for “QVQLVESGGGLVQAGGSLRLSCAASGRIFKVNAMVWYRQPPGKERELVAAIRWSGGSTYYADSVKGRFTISRDNAKNTVYLQMNSLKPEDTAVFYCAATWSRRFDYWGQGSQVTVSS”, the “polyreactivity (PSR sort gate)” value is “low polyreactivity”.

“QVQLVESGGGLVQAGGSLRLSCAASGRIFKWYAMGWSRQAPGKEREFVAGISGSAGRTYYADSVKGRFTISRDNAKNTVYLQMNSLKPEDTAVYYCAKDYNRPVEDWAKVNGYDYWGQGTQVTVSS”: the “polyreactivity (PSR sort gate)” value is listed as “low polyreactivity”. The value for “QVQLVESGGGLVQAGGSLRLSCAASGRIFKYNAMGWYRQAPGKERELVAAISGTGGSTYYADSVKGRFTISRDNAKNTVYLQMNSLKPEDTAVYYCAARYYIVSLGSGYWGQGTQVTVSS” was “high polyreactivity”.

As for “QVQLVESGGGLVQAGGSLRLSCAASGRIFKYNAMGWYRQAPGKERELVAAISWTGVSTHYADSVKGRFTISRDNAKNTVYLQMNSLKPEDTAVYYCAARVGRGVYYHWRDYWGQGTQVTVSS”, the “polyreactivity (PSR sort gate)” value was “low polyreactivity”.
